Source: patent US20220041738A1 (SAITAMA MEDICAL UNIVERSITY, published 2022)
Numbering of substitutions follows the chain as printed. Each block holds one binder with its values, some of them ahead of it.

Tests used:
Experiment in all cases: immunofluorescence on transfected, formalin-fixed C2C12 cells, IgG at 10 µg/mL, Alexa 594 anti-rat IgG
[1] = target: T1, human ALK2-L196P on cells (human, UniProt Q04771 21-509)
T1 sequence: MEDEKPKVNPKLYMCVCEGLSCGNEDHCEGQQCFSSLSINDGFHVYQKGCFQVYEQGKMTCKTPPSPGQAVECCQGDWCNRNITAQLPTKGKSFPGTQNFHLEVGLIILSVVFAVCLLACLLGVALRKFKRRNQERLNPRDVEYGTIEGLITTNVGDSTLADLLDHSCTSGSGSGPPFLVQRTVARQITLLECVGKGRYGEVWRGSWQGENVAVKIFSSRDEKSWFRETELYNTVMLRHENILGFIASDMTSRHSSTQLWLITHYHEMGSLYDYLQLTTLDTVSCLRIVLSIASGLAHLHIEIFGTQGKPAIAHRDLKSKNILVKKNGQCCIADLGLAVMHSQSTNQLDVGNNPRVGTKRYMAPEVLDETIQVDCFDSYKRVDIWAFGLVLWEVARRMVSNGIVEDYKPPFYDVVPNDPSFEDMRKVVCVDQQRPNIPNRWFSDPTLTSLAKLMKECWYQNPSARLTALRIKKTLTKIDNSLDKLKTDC
In short: (§1)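 C2C12 mouse myoblasts transfected overnight with human ALK2 cDNA (wild-type or FOP variants incl. G325A, pcDEF3 vector). Cells formalin-fixed, goat-serum blocked, stained 1 h RT with purified IgG at 10 µg/mL, then Alexa 594 anti-rat IgG 1 h; DAPI nuclei, fluorescence microscopy read-out.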

[2] = target: T2, human ALK2-R258S on cells (human, UniProt Q04771 21-509)
T2 sequence: T1 sequence with P176L, R238S
In short: as §1

[3] = target: T3, human ALK2-G356D on cells (human, UniProt Q04771 21-509)
T3 sequence: T1 sequence with P176L, G336D
In short: as §1

binding result [1]: binds
binding result [2]: binds
binding result [3]: binds
B1: rat anti-ALK2 monoclonal antibody A2-27D (antibody, V domains shown)
VH: EVQLVESGGGLVQPGRSLKLSCLASGSTFSNYGMKWIRQAPGKGLEWVASISRSSTYIYYADTVKGRFTISRDNARNTLYLQMTSLRSEDTALYYCAAAISTPFYWYFDFWGPGTVVTVSS
VL: EIVLTQSPTTMAASPGEKVTLNCLASSSVSYMTWYQQKSGASPKLWIYGTSNLASGVPNRFSGSGSGTSYSLAISSMEAEDVATYYCLHLTSYPPYTFGAGTKLELKR
notes: Rat monoclonal IgG from a hybridoma; also called 27D11

binding result [1]: binds
binding result [2]: binds
binding result [3]: binds
B2: rat anti-ALK2 monoclonal antibody A2-25C (antibody, V domains shown)
VH: EVQLVESGGGLVQPGGSLKLSCAASGFTFSYYAMSWVCQAPTKGLEWVASISRGGDNTYYRDTVKGRFTTSRDNAKNTLYLQMDSLRSEDTATYYCARLNYNNYFDYWGQGVMVTVSS
VL: DIQMTQSPASLSASLEEIVTITCQASQDIGNWLSWYQQKPGKSPQLLIYGATSLADGVPSRFSGSRSGTQYSLKISRLRVEDIGIYYCLQAYSAPFTFGSGTKLEIKR
notes: Rat monoclonal IgG from a hybridoma; also called 25C11
